Molecular target: GST-MuRF1 (MuRF1 full length, TRIM63) (Rattus norvegicus)
Test: other fluorescence titration; change in the initial fluorescence of dye-labelled GST-MuRF (10 nM, constant) with a 16-sample serial dilution of the E2; MonolithX (NanoTemper), premium capillaries, 100% MST power, 25 °C; 50 mM HEPES pH 7.4, 150 mM NaCl, 0.005% Tween20, 0.1% dextran

GST-MuRF1 (MuRF1 full length, TRIM63) (Rattus norvegicus), sequence (Q91Z63 whole entry): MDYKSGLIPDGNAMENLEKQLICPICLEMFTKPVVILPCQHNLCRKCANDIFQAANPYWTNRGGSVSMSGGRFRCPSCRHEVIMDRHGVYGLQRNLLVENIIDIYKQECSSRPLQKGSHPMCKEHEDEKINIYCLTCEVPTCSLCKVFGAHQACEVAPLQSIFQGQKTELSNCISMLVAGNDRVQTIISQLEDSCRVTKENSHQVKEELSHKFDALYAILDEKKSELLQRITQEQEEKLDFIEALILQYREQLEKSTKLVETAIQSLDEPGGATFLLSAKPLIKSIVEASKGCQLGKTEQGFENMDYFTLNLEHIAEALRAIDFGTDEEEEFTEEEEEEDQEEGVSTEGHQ

| Kd [µM] | Substance |
| --- | --- |
| 26 | UBE2J2 cytosolic part K26A (from UniProt Q6P073 1-259) (domain or fragment) |
| 8.9 | UBE2J2 cytosolic part N6A,R8A (from UniProt Q6P073 1-259) (domain or fragment) |
| 10.3 | UBE2J2 cytosolic part P10A,T11A (from UniProt Q6P073 1-259) (domain or fragment) |
